Like-named read-outs stand apart in the source and are kept apart here. Marks after values point to notes of the source that are not given here.
Key:
[1] = tested on: alcohol dehydrogenase from Brevibacterium sp KU; settings: oxidation of alcohols; activity of 2-phenylethanol taken as 100%; cited from earlier work
[2] = tested on: alcohol dehydrogenase from Brevibacterium sp KU 1309; settings: reduction of carbonyl compounds; cited from earlier work
[3] = target: T1, L(+)-lactate dehydrogenase from A. eutrophus (R. eutropha ldhA) (Cupriavidus necator, UniProt Q07251); settings: compared with that on pyruvate; cited from earlier work
T1 sequence (Q07251 1-349): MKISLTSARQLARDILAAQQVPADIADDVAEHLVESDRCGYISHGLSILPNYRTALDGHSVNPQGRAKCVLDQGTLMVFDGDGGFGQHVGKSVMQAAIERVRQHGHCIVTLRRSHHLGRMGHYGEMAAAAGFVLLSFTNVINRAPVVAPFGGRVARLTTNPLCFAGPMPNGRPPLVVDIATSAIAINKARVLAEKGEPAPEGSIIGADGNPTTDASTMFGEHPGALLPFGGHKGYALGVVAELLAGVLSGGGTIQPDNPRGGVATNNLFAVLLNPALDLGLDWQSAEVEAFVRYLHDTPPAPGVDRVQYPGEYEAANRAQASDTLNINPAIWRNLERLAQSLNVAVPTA

[4] = cytoplasmic pH, typically 7.4; cited from earlier work
[5] = tested on: cytochrome oxidases from E. coli; settings: cited from earlier work; for Km: read-out: Km for O2
[6] = tested on: NADH dehydrogenases and cytochrome oxidases; settings: aerobic growth, from Noguchi et al., 2004, cited from earlier work
[7] = target: T2, endogenous alcohol dehydrogenase (yjgB) (Escherichia coli, UniProt P27250); settings: purified protein, in the presence of NADP+; FIG. 85
T2 sequence (P27250 1-339): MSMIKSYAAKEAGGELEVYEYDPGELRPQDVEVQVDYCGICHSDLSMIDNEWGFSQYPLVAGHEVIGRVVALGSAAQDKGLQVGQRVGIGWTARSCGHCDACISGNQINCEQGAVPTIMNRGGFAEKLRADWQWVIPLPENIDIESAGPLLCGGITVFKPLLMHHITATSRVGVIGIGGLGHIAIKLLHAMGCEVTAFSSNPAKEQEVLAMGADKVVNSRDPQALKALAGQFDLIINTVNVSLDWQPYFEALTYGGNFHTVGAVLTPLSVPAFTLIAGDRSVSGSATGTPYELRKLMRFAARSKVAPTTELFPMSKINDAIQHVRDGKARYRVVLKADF
Method: The sample was purified while following the backflux activity.
A fresh sample of 1427 cells from a 2 L LB preparation grown aerobically overnight was lysed using the microfluidizer at 15,000 psi. The sample was then fractionated via ammonium sulfate.
The 60% ammonium sulfate pellet was resuspended in a low salt buffer and dialyzed overnight to remove the residual ammonium sulfate. The sample was loaded onto a 5 ml Q-sepharose column (strong anion exchange) and eluted via a slow increasing salt gradient.
The peak backflux activity from anion exchange was pooled and concentrated to allow for application to a S200 sephacryl size exclusion column.
The peak with the highest backflux activity from the size exclusion column was pooled and loaded on a phenyl sepharose column (hydrophobic interaction column). The ionic strength of the sample was increased to facilitate binding to the resin.

[8] = host strain ECKh-432 with pZS*13S plasmid, culture supernatant, micro-aerobic

Method for 1,4-butanediol pathway: Ten mL micro-aerobic cultures were started by inoculating fresh minimal in vivo conversion medium (see below) containing the appropriate antibiotics with 1% of the first cultures.
Microaerobic conditions were established by initially flushing capped anaerobic bottles with nitrogen for 5 minutes, then piercing the septum with an 18G needle following inoculation. The needle was kept in the bottle during growth to allow a small amount of air to enter the bottles. Protein expression was induced with 0.2 mM IPTG when the culture reached mid-log growth phase. This is considered: time=0 hr.

CC(O)c1ccccc1 (stereo not drawn) [1-Phenylethanol]
Relative Activity [1]: 46 0%

CC(C=O)c1ccccc1 (stereo not drawn) [2-Phenylpropionaldehyde]
Km [2]: 864 µM

CCC(C)C(=O)C(=O)O (stereo not drawn) [3-Methyl-2-oxovalerate]
Activity (%) of L(+)-lactate dehydrogenase from A. eutrophus [3]: 5.3%

CC(C)CC(=O)C(=O)O [4-Methyl-2-oxopentanoate]
Activity (%) of L(+)-lactate dehydrogenase from A. eutrophus [3]: 39.0%

C[C@@H](CO)c1ccccc1 [(R)-2-Phenylpropanol]
Relative Activity [1]: 63 0%

CCO [Ethanol]
Relative Activity [1]: 76 0%

O=C1CCCO1 [GBL, γ-butyrolactone]
lactone/hydroxyacid equilibrium [4]: hydrolysis of the GBL lactone is favored

O=CC(=O)O [Glyoxylate]
Activity (%) of L(+)-lactate dehydrogenase from A. eutrophus [3]: 8.7%

O=CCc1ccccc1 [Phenylacetaldehyde]
Km [2]: 261 µM

CCCCCCCCCCCCO [Sample 1-Dodecanol, 1-Dodecanol]
Relative Activity [1]: 68 0%

CC(C)O [Sample 2-Propanol, 2-Propanol]
Relative Activity [1]: 54 0%

cytochrome bd oxidase: E. coli cytochrome bd oxidase (cyd operon)
Km [5]: 0.01 µM

B1: NDH-2 (protein, UniProt P00393 2-434, looked up)
Type II NADH:quinone …: TTPLKKIVIVGGGAGGLEMATQLGHKLGRKKKAKITLVDRNHSHLWKPLLHEVATGSLDEGVDALSYLAHARNHGFQFQLGSVIDIDREAKTITIAELRDEKGELLVPERKIAYDTLVMALGSTSNDFNTPGVKENCIFLDNPHQARRFHQEMLNLFLKYSANLGANGKVNIAIVGGGATGVELSAELHNAVKQLHSYGYKGLTNEALNVTLVEAGERILPALPPRISAAAHNELTKLGVRVLTQTMVTSADEGGLHTKDGEYIEADLMVWAAGIKAPDFLKDIGGLETNRINQLVVEPTLQTTRDPDIYAIGDCASCPRPEGGFVPPRAQAAHQMATCAMNNILAQMNGKPLKNYQYKDHGSLVSLSNFSTVGSLMGNLTRGSMMIEGRIARFVYISLYRMHQIALHGYFKTGLMMLVGSINRVIRPRLKLH
Concentrations of NADH dehydrogenases and cytochrome oxidase ([6]; Limited glucose (early stationary)): 0.70 ± 0.03 μmol/s/mg of protein
Concentrations of NADH dehydrogenases and cytochrome oxidase ([6]; Standard glucose (early stationary: 8 h)): 0.88 ± 0.01 μmol/s/mg of protein
Concentrations of NADH dehydrogenases and cytochrome oxidase ([6]; Standard glucose (exponential: 3 h)): 1.11 ± 0.06 μmol/s/mg of protein
Concentrations of NADH dehydrogenases and cytochrome oxidase ([6]; Standard glucose (exponential: 5 h)): 0.86 ± 0.03 μmol/s/mg of protein

B2: cytochrome bo oxidase: E. coli cytochrome bo oxidase (cyo operon) (protein, UniProt P0ABJ1 25-315; P0ABI8 1-663; P0ABJ3 1-204; P0ABJ6 1-109, looked up)
Cytochrome bo(3) ubiquinol … 1: CNSALLDPKGQIGLEQRSLILTAFGLMLIVVIPAILMAVGFAWKYRASNKDAKYSPNWSHSNKVEAVVWTVPILIIIFLAVLTWKTTHALEPSKPLAHDEKPITIEVVSMDWKWFFIYPEQGIATVNEIAFPANTPVYFKVTSNSVMNSFFIPRLGSQIYAMAGMQTRLHLIANEPGTYDGISASYSGPGFSGMKFKAIATPDRAAFDQWVAKAKQSPNTMSDMAAFEKLAAPSEYNQVEYFSNVKPDLFADVINKFMAHGKSMDMTQPEGEHSAHEGMEGMDMSHAESAH
Cytochrome bo(3) ubiquinol … 2: MFGKLSLDAVPFHEPIVMVTIAGIILGGLALVGLITYFGKWTYLWKEWLTSVDHKRLGIMYIIVAIVMLLRGFADAIMMRSQQALASAGEAGFLPPHHYDQIFTAHGVIMIFFVAMPFVIGLMNLVVPLQIGARDVAFPFLNNLSFWFTVVGVILVNVSLGVGEFAQTGWLAYPPLSGIEYSPGVGVDYWIWSLQLSGIGTTLTGINFFVTILKMRAPGMTMFKMPVFTWASLCANVLIIASFPILTVTVALLTLDRYLGTHFFTNDMGGNMMMYINLIWAWGHPEVYILILPVFGVFSEIAATFSRKRLFGYTSLVWATVCITVLSFIVWLHHFFTMGAGANVNAFFGITTMIIAIPTGVKIFNWLFTMYQGRIVFHSAMLWTIGFIVTFSVGGMTGVLLAVPGADFVLHNSLFLIAHFHNVIIGGVVFGCFAGMTYWWPKAFGFKLNETWGKRAFWFWIIGFFVAFMPLYALGFMGMTRRLSQQIDPQFHTMLMIAASGAVLIALGILCLVIQMYVSIRDRDQNRDLTGDPWGGRTLEWATSSPPPFYNFAVVPHVHERDAFWEMKEKGEAYKKPDHYEEIHMPKNSGAGIVIAAFSTIFGFAMIWHIWWLAIVGFAGMIITWIVKSFDEDVDYYVPVAEIEKLENQHFDEITKAGLKNGN
Cytochrome bo(3) ubiquinol … 3: MATDTLTHATAHAHEHGHHDAGGTKIFGFWIYLMSDCILFSILFATYAVLVNGTAGGPTGKDIFELPFVLVETFLLLFSSITYGMAAIAMYKNNKSQVISWLALTWLFGAGFIGMEIYEFHHLIVNGMGPDRSGFLSAFFALVGTHGLHVTSGLIWMAVLMVQIARRGLTSTNRTRIMCLSLFWHFLDVVWICVFTVVYLMGAM
Cytochrome bo(3) ubiquinol … 4: MSHSTDHSGASHGSVKTYMTGFILSIILTVIPFWMVMTGAASPAVILGTILAMAVVQVLVHLVCFLHMNTKSDEGWNMTAFVFTVLIIAILVVGSIWIMWNLNYNMMMH
Km [5]: ~1 µM

B3: Cytochrome bo (protein, UniProt P0ABJ1 25-315; P0ABI8 1-663; P0ABJ3 1-204; P0ABJ6 1-109, looked up)
Cytochrome bo(3) ubiquinol … 1: B2 Cytochrome bo(3) ubiquinol … 1
Cytochrome bo(3) ubiquinol … 2: B2 Cytochrome bo(3) ubiquinol … 2
Cytochrome bo(3) ubiquinol … 3: B2 Cytochrome bo(3) ubiquinol … 3
Cytochrome bo(3) ubiquinol … 4: B2 Cytochrome bo(3) ubiquinol … 4
Vmax ([5]; from Bekker et al., 2009): 225^c mol O/mol cytochrome bd/s

B4: GNM_720: car gene, carboxylic acid reductase from Nocardia iowensis (protein, listed as Nocardia iowensis)
chain: MAVDSPDERLQRRIAQLFAEDEQVKAARPLEAVSAAVSAPGMRLAQIAATVMAGYADRPAAGQRAFELNTDDATGRTSLRLLPRFETITYRELWQRVGEVAAAWHHDPENPLRAGDFVALLGFTSIDYATLDLADIHLGAVTVPLQASAAVSQLIAILTETSPRLLASTPEHLDAAVECLLAGTTPERLVVFDYHPEDDDQRAAFESARRRLADAGSLVIVETLDAVRARGRDLPAAPLFVPDTDDDPLALLIYTSGSTGTPKGAMYTNRLAATMWQGNSMLQGNSQRVGINLNYMPMSHIAGRISLFGVLARGGTAYFAAKSDMSTLFEDIGLVRPTEIFFVPRVCDMVFQRYQSELDRRSVAGADLDTLDREVKADLRQNYLGGRFLVAVVGSAPLAAEMKTFMESVLDLPLHDGYGSTEAGASVLLDNQIQRPPVLDYKLVDVPELGYFRTDRPHPRGELLLKAETTIPGYYKRPEVTAEIFDEDGFYKTGDIVAELEHDRLVYVDRRNNVLKLSQGEFVTVAHLEAVFASSPLIRQIFIYGSSERSYLLAVIVPTDDALRGRDTATLKSALAESIQRIAKDANLQPYEIPRDFLIETEPFTIANGLLSGIAKLLRPNLKERYGAQLEQMYTDLATGQADELLALRREAADLPVLETVSRAAKAMLGVASADMRPDAHFTDLGGDSLSALSFSNLLHEIFGVEVPVGVVVSPANELRDLANYIEAERNSGAKRPTFTSVHGGGSEIRAADLTLDKFIDARTLAAADSIPHAPVPAQTVLLTGANGYLGRFLCLEWLERLDKTGGTLICVVRGSDAAAARKRLDSAFDSGDPGLLEHYQQLAARTLEVLAGDIGDPNLGLDDATWQRLAETVDLIVHPAALVNHVLPYTQLFGPNVVGTAEIVRLAITARRKPVTYLSTVGVADQVDPAEYQEDSDVREMSAVRVVRESYANGYGNSKWAGEVLLREAHDLCGLPVAVFRSDMILAHSRYAGQLNVQDVFTRLILSLVATGIAPYSFYRTDADGNRQRAHYDGLPADFTAAAITALGIQATEGFRTYDVLNPYDDGISLDEFVDWLVESGHPIQRITDYSDWFHRFETAIRALPEKQRQASVLPLLDAYRNPCPAVRGAILPAKEFQAAVQTAKIGPEQDIPHLSAPLIDKYVSDLELLQLL
BDO formation in ECKh-432 (1,4-butanediol pathway): required for BDO formation
ETOHEnz (ethanol) (1,4-butanediol pathway; [8]): >LLOQ
GBL (gamma-butyrolactone) (1,4-butanediol pathway; [8]): 0.07 mM
LA (lactate) (1,4-butanediol pathway; [8]): 0.10 mM
SA (succinate) (1,4-butanediol pathway; [8]): 0.00 mM

B5: yjgB: E. coli alcohol dehydrogenase yjgB, cloned with a streptavidin tag and purified (protein, UniProt P27250 1-339, looked up)
Aldehyde reductase Ahr: T2 sequence (P27250 1-339)
modifications: streptavidin tag
activity with BDO as a substrate [7]: robust activity was confirmed
